According to PMC3413365 (The Journal of Cell Biology, 2012):

B2: Lucifer yellow–labeled BiP substrate peptide (NH2-HTFPAVLGSC-COOH) (peptide)
peptide: H-HTFPAVLGSC-OH
modifications: also: Lucifer yellow iodoacetamide label, residue not given here

Legend:
Assay in all cases: fluorescence polarisation
[1] = target: B2
[2] = target: T1, BiP^R470E (hamster, UniProt G3I8R9 19-654, R470E)
[3] = target: Lidless BiP (Δ554-654) (hamster, UniProt G3I8R9 19-553)
[4] = target: T2, H6-tagged hamster BiP, wild type (hamster, UniProt G3I8R9 19-654)
[5] = target: BiP^Δ(554–654);R470E (hamster, UniProt G3I8R9 19-553, R470E)
[6] = target: T1, BiP^R470E; remark: listed apart in the source
[7] = target: T2, H6-tagged hamster BiP, wild type; remark: listed apart in the source

T2 sequence (G3I8R9 19-654): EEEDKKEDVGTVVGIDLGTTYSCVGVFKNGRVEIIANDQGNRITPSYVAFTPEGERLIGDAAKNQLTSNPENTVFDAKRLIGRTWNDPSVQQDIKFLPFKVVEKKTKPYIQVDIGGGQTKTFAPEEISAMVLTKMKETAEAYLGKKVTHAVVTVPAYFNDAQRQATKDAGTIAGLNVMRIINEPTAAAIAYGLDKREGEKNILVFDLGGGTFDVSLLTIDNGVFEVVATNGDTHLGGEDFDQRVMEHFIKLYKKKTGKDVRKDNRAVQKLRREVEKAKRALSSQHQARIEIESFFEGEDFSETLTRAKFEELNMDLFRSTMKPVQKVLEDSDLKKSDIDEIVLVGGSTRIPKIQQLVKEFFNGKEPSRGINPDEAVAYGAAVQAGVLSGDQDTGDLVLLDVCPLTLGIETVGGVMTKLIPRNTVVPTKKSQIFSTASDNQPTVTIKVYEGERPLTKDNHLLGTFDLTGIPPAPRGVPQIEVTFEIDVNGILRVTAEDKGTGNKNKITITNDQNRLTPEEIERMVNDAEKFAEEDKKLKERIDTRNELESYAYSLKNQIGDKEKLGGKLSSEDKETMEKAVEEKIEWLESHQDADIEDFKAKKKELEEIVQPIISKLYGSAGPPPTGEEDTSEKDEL
T1 sequence (G3I8R9 19-654 R470E): as the sequence (G3I8R9 19-654) above, with R452E counted along it
BiP^Δ(554–654);R470E, sequence (G3I8R9 19-553 R470E): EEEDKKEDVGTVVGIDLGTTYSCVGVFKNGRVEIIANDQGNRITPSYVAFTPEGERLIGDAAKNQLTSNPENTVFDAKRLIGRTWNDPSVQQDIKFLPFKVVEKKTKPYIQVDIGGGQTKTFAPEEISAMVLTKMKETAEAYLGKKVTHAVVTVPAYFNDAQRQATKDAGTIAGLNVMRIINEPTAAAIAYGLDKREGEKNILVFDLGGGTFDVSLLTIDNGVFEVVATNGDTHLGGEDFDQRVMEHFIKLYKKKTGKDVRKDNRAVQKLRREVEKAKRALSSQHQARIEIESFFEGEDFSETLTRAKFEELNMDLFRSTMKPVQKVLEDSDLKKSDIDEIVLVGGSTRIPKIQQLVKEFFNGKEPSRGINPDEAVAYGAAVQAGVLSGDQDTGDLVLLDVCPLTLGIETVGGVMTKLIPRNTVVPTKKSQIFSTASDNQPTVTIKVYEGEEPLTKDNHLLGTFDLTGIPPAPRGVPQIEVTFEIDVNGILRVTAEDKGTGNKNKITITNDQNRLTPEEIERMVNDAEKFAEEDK
Lidless BiP (Δ554-654), sequence (G3I8R9 19-553, stated change not applied): as the sequence (G3I8R9 19-553 R470E) above, with E452R counted along it

B1: BiP^R470K (natural protein)
chain: not shown
B1 was tested, and the “fold change of the peptide off-rate against wild type” value [1] was 3 fold.

With B2 the koff [2] was 0.0074 s⁻¹, the koff [3] was 0.0017 s⁻¹ and the koff [4] was 0.0002 s⁻¹. For the same binder, the koff [5] was 0.00328 s⁻¹, the Kd [6] was 9 µM and the Kd [7] was 13 µM.

B3: BiP^R492K (natural protein)
chain: not shown
With B3 the “fold change of the peptide off-rate against wild type” value [1] was 3 fold.
